Data from the RNAGym collection of RNA variant scans (doi:10.1073/pnas.2313332121).
Fewer inactive variants are shown than the library holds.

B1: TPR 5TU (parent)
chain: GGAUCUUCUCGAUCUAACAAAAAAGACAAAUCUGCCACAAAGCUUGAGAGCAUCUUCGGAUGCAGAGGCGGCAGCCUUCGGUGGCGCGAUAGCGCCAACGUUCUCAACUAUGACACGCAAAACGCGUGCUCCGUUGAAUGGAGUUUAUCAUG

Variants of: B1
Assay: polymerase ribozyme fitness, log enrichment relative to wild type (log ratio); higher = more active; in vitro selection for triplet polymerase activity
Summary of the method: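 In triplicate, a single round of in vitro selection was run on each mutant library, PCR-built and transcribed, covering one subunit of a heterodimeric triplet polymerase ribozyme. Frozen incubation at −7 °C followed annealing with a biotinylated primer, partner subunit and triplets, and extended constructs were then gel-excised, streptavidin-captured and taken through RT-PCR. Fitness is the logarithm of genotype enrichment over wild-type enrichment, from inverse-variance-weighted replicate averages of Illumina-sequenced inputs and outputs. […] only genotypes with ≥10 input reads and ≥1 read per output were kept.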

Variant	polymerase ribozyme fitness (log ratio)
C8A C14G A21G G25A U45C C75A G81U C85G C87G	≤ -4.2
U6G G94A A115C	-1.5
U6C U31C A119G	-0.646
C8G U56G A91G	≤ -4.2
U7G A22G C36A U56G G62U G88A	≤ -4.2
U7G A41U U53A C54U U56A C57A G71U C95A G112C	≤ -4.2
C8A C87G	≤ -4.2
C8A C87U	-3.89
U6G C57A U102G	-1.76
C8U C87G G100C U139C C149G	≤ -4.2
U9A C10U U53A A66U C87A A119U G126A G141A	-4.03
C8G A91U A142U	-3.92
C8U G11A G86A U109C C123A C132G	≤ -4.2
U9A A60U U61C C72U C93U	≤ -4.2
U6G A52C C96G A115G	-3.74
C8U C10U C32G C35G C95U G136A	≤ -4.2
C8G G94A	-3.64
C8G A29U	-4.04
U7A C63U A73G A120G U146A	≤ -4.2
U7A G42U C76G C96G C99A U144A C149G	≤ -4.2
U7C U53A	-2.82

Variant	polymerase ribozyme fitness (log ratio)
U6G U15A A20G C87U	-0.616
U7C C93G	-4.04
U6G A52G A106C C116A	-0.169
C8G A16C C93U A137G	≤ -4.2
C8U C14G C32A C36G G83A G117C	≤ -4.2
C8U A16C A19U G59U A60G C93U	≤ -4.2
U7A C32G A66C G68A C87A G128U G136C	≤ -4.2
C8A A64G U82A A91U A97C A122G A142C	≤ -4.2
U6G C38U C43U A91U C95G U102G	≤ -4.2
C8G G11A A19C G50A C69A G70A C93U	≤ -4.2
U9A A21G A28C U45A A52C C87A G128A G136U	≤ -4.2
C8G G80C	≤ -4.2
C8G G92U	-3.57
U7G A52U G140C	≤ -4.2
C8U A22C A39G C85G A106G A119G	≤ -4.2
U6G A17C A37G A52C C54U C96A A122U U134C	≤ -4.2
U7G C14G U55G G58U G80C A107G C118U G140C	≤ -4.2
C8G U31A A49C U53A G84A A119U A121C A137U	≤ -4.2
C8G C131U U144G	≤ -4.2
C8A A12C	-3.07
C8G A24U A26G A52C C93G	≤ -4.2

Variant	polymerase ribozyme fitness (log ratio)
U7A U61A A119U	≤ -4.2
C8G G34A G124A A137C	≤ -4.2
U6G G62C U82G	-0.631
U7A A40C C54A G59C C87U	≤ -4.2
U7C C14U U53A C96U U104C C116A G124U U135G	≤ -4.2
U6G A22U C87U	0.101
C8U A40U	-3.42
U7A U9G	-3.64
C8A U13G A30U U82A U101G	≤ -4.2
U7C A12U	-2.57
C8G A22U C35G C69G G70C G92A	≤ -4.2
C8A G50U C76U G83A C116G C131A U145C	≤ -4.2
U7C G50A G58A G68A A97C G141C U146A	≤ -4.2
C8G G83A C99U	≤ -4.2
C8G A23G A40G G67C C99U U102G U127C G143C	≤ -4.2
U6C C14A A49U G50U A52G C93G C99G	≤ -4.2
C8A A28C A30G C96A U127G	≤ -4.2
U9A C27U C72U	≤ -4.2
C8G C54U	-3.66
C8A U15G U55A A73U A91G G140A	≤ -4.2
C8U A21U A28C A52U G94U C95G A97C A122U G126U G136A	≤ -4.2

Variant	polymerase ribozyme fitness (log ratio)
U6G C76U C93G	-2.95
U9A C93A A142C	-3.81
U6C C36A G67C C85U G124C C132U	≤ -4.2
U6G A98U	-0.985
C8A C38U C57U C79G C96G	≤ -4.2
C8G G48A C54U C69G C85G A91C	≤ -4.2
C8A C96A	-3.5
C8U A142C	-3.25
C8A A41U C76U A98G C116G G143C	≤ -4.2
U6G A23C G88C A97U	≤ -4.2
C8U U31G A40G G42U A52C C79G G84A C103A G133A U148G	≤ -4.2
U6G U33A G42U C57U A64C C85G A107G G117C	≤ -4.2
C8A C96A A110U U111G	≤ -4.2
U7A C32G U33C C87A C96U U101C C116A U145G U146C	≤ -4.2
U7G C103A	-3.85
C8A A49G A60U C75U U78C C85G C116G G140A	≤ -4.2
U9A A24U U55A G68U U82C G94A A110U G136A	≤ -4.2
U7G U31A C57U G94C U135C G140U U148C	≤ -4.2
U6G U9G U31A G48A C76G C87A U111C G140U	≤ -4.2
U7A A37G A47C G59C C72U G84C G88A C108A G141C	≤ -4.2
U7A A29C A41U G94C	≤ -4.2
